From publication PMC2760858 come the findings set out here.

As usually defined, the stoichiometry N is a count of units in the complex or per binding partner.

In one experiment the target is hERK1-GFP (human) (UniProt P27361). Briefly: FRET or BRET; acceptor photobleaching FRET in fixed HeLa cells transfected with hERK1-GFP; partner labelled with primary antibody and Cy3-conjugated secondary antibody; GFP/Cy3 pair. Background: Bioluminescence resonance energy transfer reports proximity on the nanometre scale.
The target in experiment [1] is endogenous phospho-ERK1/2 (human (endogenous in HeLa)) (UniProt P27361). Briefly: FRET or BRET; acceptor photobleaching FRET in fixed untransfected HeLa cells; endogenous phospho-ERK1/2 and partner labelled with primary antibodies and Cy3- or Cy5-conjugated secondary antibodies; Cy3/Cy5 pair.
For experiment [2], the target named is GST-hERK1 recombinant protein (human) (UniProt P27361). Briefly: non-reducing SDS-PAGE after pull-down, band identified by MALDI-TOF-MS; GST-hERK1 on GSH-agarose incubated with HeLa mitochondrial extract, high stringency; electrophoresis in the absence of β-ME or DTT; band of MW ~130.

As to “Histone H2A (from UniProt P0C0S8 1-130) (natural protein)”, the FRET efficiency (nuclei) in the experiment with hERK1-GFP (human) was 0.3. This substance registered a mean FRET efficiency in experiment [1] of 0.17.
In turn, “Histone H4 (from UniProt P62805 1-103) (natural protein)” registered an FRET efficiency (nuclei) in the experiment with hERK1-GFP (human) of 0.2.
In the case of “GST-hERK1 recombinant protein (from UniProt P27361 1-379) (enzyme)”, the stoichiometry N in experiment [2] was determined as 2.
“Porin 31HL (VDAC1), voltage-dependent anion channel 1 (from UniProt P21796 1-283) (natural protein)” yielded a mean FRET efficiency (cytoplasm) with hERK1-GFP (human) of 0.3.
